According to IntAct's records for PubMed 18615013:

B1: Aurora kinase A (Homo sapiens), O14965 (parent)
chain: MDRSKENCISGPVKATAPVGGPKRVLVTQQFPCQNPLPVNSGQAQRVLCPSNSSQRIPLQAQKLVSSHKPVQNQKQKQLQATSVPHPVSRPLNNTQKSKQPLPSAPENNPEEELASKQKNEESKKRQWALEDFEIGRPLGKGKFGNVYLAREKQSKFILALKVLFKAQLEKAGVEHQLRREVEIQSHLRHPNILRLYGYFHDATRVYLILEYAPLGTVYRELQKLSKFDEQRTATYITELANALSYCHSKRVIHRDIKPENLLLGSAGELKIADFGWSVHAPSSRRTTLCGTLDYLPPEMIEGRMHDEKVDLWSLGVLCYEFLVGKPPFEANTYQETYKRISRVEFTFPDFVTEGARDLISRLLKHNPSQRPMLREVLEHPWITANSSKPSNCQNKESASKQS

Variants of: B1
Conditions: with plk1_human PLK1, P53350
plk1_human PLK1, P53350, sequence (P53350 whole entry): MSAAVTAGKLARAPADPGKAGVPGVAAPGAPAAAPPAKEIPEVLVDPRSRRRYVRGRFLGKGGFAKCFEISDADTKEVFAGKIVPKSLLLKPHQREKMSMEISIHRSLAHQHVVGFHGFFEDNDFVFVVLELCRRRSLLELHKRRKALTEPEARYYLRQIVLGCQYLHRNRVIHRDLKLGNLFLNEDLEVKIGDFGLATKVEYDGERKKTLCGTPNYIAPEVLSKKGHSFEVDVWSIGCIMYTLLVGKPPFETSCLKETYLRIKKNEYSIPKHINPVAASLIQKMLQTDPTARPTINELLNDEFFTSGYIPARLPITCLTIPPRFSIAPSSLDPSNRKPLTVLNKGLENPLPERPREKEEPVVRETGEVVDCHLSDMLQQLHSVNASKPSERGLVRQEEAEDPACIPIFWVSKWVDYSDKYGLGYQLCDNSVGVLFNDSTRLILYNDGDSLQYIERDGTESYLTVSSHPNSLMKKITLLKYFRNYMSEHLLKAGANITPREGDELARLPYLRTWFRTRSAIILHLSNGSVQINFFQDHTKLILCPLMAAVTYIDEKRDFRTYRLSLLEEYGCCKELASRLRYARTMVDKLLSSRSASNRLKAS

Row | effect of a mutation on the interaction | Variant
1 | disrupting interaction | K162R
